The results in this text go back to patent US20230055711A1 (BIOSION, published 2023).

Test [1] concerns the target recombinant human BCMA-his protein (Acro biosystems, Cat #BCA-H522Y) (human) (UniProt Q02223). Briefly: competitive ELISA: antibody pre-mixed with biotin-labeled human BCMA-his, competitor coated BCMA BM1 (self-competition).
Test [2] shares this target. Briefly: capture ELISA: antibody captured on the plate, biotin-labeled human BCMA-his detected with streptavidin-HRP. (In general: An ELISA detects its analyte on a solid surface through an enzyme-linked reagent.)
The target is the same in test [3]. Briefly: competitive ELISA: coated human BCMA-his, blocked ligand biotin-labeled BAFF-Fc.
For test [4] the target is unchanged. Description: competitive ELISA: antibody pre-mixed with biotin-labeled human BCMA-his, competitor coated BCMA BM1 (self-competition). This is another data set of the same source.
For test [5] the target is unchanged. Briefly: capture ELISA: antibody captured on the plate, biotin-labeled human BCMA-his detected with streptavidin-HRP. The source holds these as a separate data set.
Test [6] shares this target. Description: BLI Octet RED96, antibody on AHC sensor, BCMA-his in solution.
The target is the same in test [7]. Briefly: SPR Biacore, antibody captured by anti-human IgG on CM5, BCMA-his flowed. Background: Surface plasmon resonance follows binding to a sensor surface in real time, without labels.
Test [8] shares this target. Description: SPR Biacore T200, antibody captured on Protein G chip, BCMA-his flowed.
Test [9] has the same target. Description: competitive ELISA: coated human BCMA-his, blocked ligand biotin-labeled BAFF-Fc. The source holds these as a separate data set.
The target in test [10] is human BCMA on U266 cells (human) (UniProt Q02223). Briefly: cell-based or functional assay.
Test [11] deals with recombinant human BCMA-his protein (Acro biosystems, Cat #BCA-H522Y) (human) (UniProt Q02223). Briefly: SPR Biacore T200, antibody captured by anti-mouse IgG on CM5, BCMA-his flowed.
Test [12] concerns the target T1, cynomolgus BCMA-his protein (Acro biosystems, Cat #BCA-052H7) (cynomolgus monkey, UniProt A0A2K5UD97 1-53).
T1 construct: Bought; also called cynomolgus monkey BCMA protein; not shown: his tag
Briefly: indirect ELISA on coated cynomolgus BCMA-his.

The target in test [13] is recombinant human BCMA-his protein (Acro biosystems, Cat #BCA-H522Y) (human) (UniProt Q02223). Briefly: competitive ELISA: antibody pre-mixed with biotin-labeled human BCMA-his, competitor coated BCMA BM1.
The target is the same in test [14]. Briefly: SPR Biacore, antibody captured on CM5 chip, BCMA-his flowed.
For test [15], the target named is T2, human BCMA on 293F-BCMA cells (human, UniProt Q02223 1-184).
T2 construct: Stably expressed on 293F cells prepared in house; also called 293F cells expressing human BCMA; Full length human BCMA
T2 sequence: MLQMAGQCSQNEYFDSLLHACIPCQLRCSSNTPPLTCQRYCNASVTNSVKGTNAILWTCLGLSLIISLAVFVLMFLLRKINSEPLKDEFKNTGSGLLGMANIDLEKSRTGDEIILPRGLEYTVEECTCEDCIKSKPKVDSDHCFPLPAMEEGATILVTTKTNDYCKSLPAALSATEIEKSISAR
Briefly: cell based binding FACS on 293F cells expressing human BCMA, MFI.

The target in test [16] is T3, human BCMA on U266 cells (human, UniProt Q02223 1-184).
T3 construct: whole, on cells; Endogenous protein of the cell line; also called human BCMA on the cell surface; U266 cells expressing human BCMA
T3 sequence (looked up): T2 sequence
Briefly: cell based binding FACS on U266 cells, MFI.

Test [17] has as its target recombinant human BCMA-his protein (Acro biosystems, Cat #BCA-H522Y) (human) (UniProt Q02223). Description: competitive ELISA: antibody pre-mixed with biotin-labeled human BCMA-his, competitor coated BCMA BM1. This is another data set of the same source.
In test [18] the target is T3, human BCMA on U266 cells. Description: cell-based or functional assay.

Positions count from the first letter of the chain named. Where two headings read alike, the source gives them in different places.

T1 sequence (A0A2K5UD97 entry or part of it): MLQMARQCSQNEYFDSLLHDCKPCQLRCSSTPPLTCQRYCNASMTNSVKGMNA

For the molecule “BCMA BM1, full-length antibody containing the BCMA-binding portion of GSK2857916”, the IC50 is 2.89 nM in [1], 12.6 nM in test [3], 2.64 nM in [4] and 10.7 nM in [9]. The 50% effective concentration (EC50) in test [2] turned out to be 0.569 nM; in test [5] it was 1.11 nM. Moreover, the Kd in [6] worked out at 0.436 nM; in [7] it was 0.578 nM; in [8], 0.742 nM. For the same molecule, the koff in test [6] turned out to be 0.000125 s⁻¹; in test [7] it was 0.000141 s⁻¹; in [8] it was 0.000245 s⁻¹. The kon in test [6] stood at 286000 M⁻¹ s⁻¹; in test [7], 244000 M⁻¹ s⁻¹; in [8] it was 330000 M⁻¹ s⁻¹.

As for “isotype control antibody (as isotype control-DT3C conjugate)”, the Max inhibition on cell viability (%), antibody-DT3C conjugate on U266 cells in [10] was found to be 17.8%.

B1: mouse anti-BCMA monoclonal antibody B1H2 (antibody, V domains shown)
VH: EVQLQQSGPELVKPGASVKMSCKASGYTLTNYVMHWMKQKPGQGLEWIGFIIPFNDGTKYNEHFKGKATLTSDKSSNTAYMVLSSLTSEDSAVYYCARYDFEGYFDVWGAGTTVTVSS
VL: DIQMTQTTSSLSASLGDRVTISCSASQDITNFLNWYQQKPDGTVKLLIYSTSRLHSGVPSRFSGSGSGTDYSLTISNLEPEDIATYYCQQYSNLPWTFGGGTNLEIK
notes: Hybridoma-derived mouse mAb purified on Protein A; also called Mouse B1H2; mouse antibody B1H2
As to B1, the EC50 came out at 0.177 nM in [2]; 0.702 nM in test [5]; 31.4 nM in [12]; 0.613 nM in test [15]; 0.885 nM with human BCMA on U266 cells [16]. The IC50 in test [3] worked out at 8.28 nM; in test [13], 1.03 nM; in test [9], 6.09 nM; in test [17] it was 0.282 nM. Moreover, the values for the Kd in test [11] and in [14] were 0.203 nM and 0.0757 nM, respectively. The koff in test [11] was 0.0011 s⁻¹; in [14], 0.000783 s⁻¹. For the same molecule, the kon worked out at 5.42e+06 M⁻¹ s⁻¹ in [11] and 1.03e+07 M⁻¹ s⁻¹ in test [14].

B2: chimeric B1H2 antibody (antibody, human IgG1, kappa, V domains shown)
VH: B1 VH
VL: DIQMTQTTSSLSASLGDRVTISCSASQDITNFLNWYQQKPDGTVKLLIYSTSRLHSGVPSRFSGSGSGTDYSLTISNLEPEDIATYYCQQYSNLPWTFGGGTNLEIKR
notes: Mouse variable domains fused to human IgG1 / kappa constant regions, made in 293F cells
B2: the EC50 in [2] was 0.226 nM; in [12], 190 nM; in [15], 0.953 nM. Besides, the Kd in [6] came to 0.673 nM; in test [7], 0.0839 nM.

B3: huB1H2-V10 (antibody, human IgG1, kappa, V domains shown)
VH: QVQLVQSGAEVKKPGASVKVSCKASGYTLTNYVMHWVRQAPGQGLEWIGFIIPFNDGTKYNEHFKGRVTITSDTSISTAYMQLSSLRSEDTAVYYCARYDFEGYFDVWGQGTLVTVSS
VL: DIQMTQSPSSLSASVGDRVTITCSASQDITNFLNWYQQKPGKAPKLLIYSTSRLHSGVPSRFSGSGSGTDFTLTISSLQPEDIATYYCQQYSNLPWTFGQGTKVEIKR
notes: Humanized IgG1/kappa; cell supernatant in the Octet assay, purified antibody in Biacore, ELISA and FACS
Take B3: the EC50 is 0.47 nM in [2], about 25400 nM in [12] and 1.2 nM in [15]. Moreover, the results for the half-inhibitory concentration (IC50) in [3] and in test [17] were 10.2 nM and 1.51 nM, respectively. Moreover, the Kd in test [6] was determined as 2.02 nM; in test [7], 0.289 nM. The koff in [6] was found to be 0.000733 s⁻¹; in [7] it was 0.00788 s⁻¹. In addition, the kon was found to be 363000 M⁻¹ s⁻¹ in test [6] and 2.73e+07 M⁻¹ s⁻¹ in [7]. The “IC50 (nM), cell killing activity of antibody-DT3C conjugate on U266 cells (internalization assay)” value (from here on “IC50 (nM), cell killing activity”) with human BCMA on U266 cells [18] was 0.19 nM. In addition, the “Max inhibition on cell viability (%), antibody-DT3C conjugate on U266 cells” value (“Max inhibition on cell viability (%)” below) with human BCMA on U266 cells [18] was determined as 99.7%.

B4: BCMA BM1, full-length antibody containing the BCMA-binding portion of GSK2857916 (antibody, human IgG1, kappa, V domains shown)
VH: QVQLVQSGAEVKKPGSSVKVSCKASGGTFSNYWMHWVRQAPGQGLEWMGATYRGHSDTYYNQKFKGRVTITADKSTSTAYMELSSLRSEDTAVYYCARGAIYDGYDVLDNWGQGTLVTVSS
VL: B3 VL with T30S, F32Y, S50Y, R53N, I83F, S92R, N93K, V104L
notes: Prepared in house from the full heavy and light chains; also called benchmark; positive control
For B4, the “IC50 (nM), cell killing activity” value in the test with human BCMA on U266 cells [18] came out at 1.55 nM. Also, the “Max inhibition on cell viability (%)” value with human BCMA on U266 cells [18] was determined as 97%. Besides, the EC50 in [12] is 0.186 nM; in [15], 8.86 nM; in the test with human BCMA on U266 cells [16], 17.7 nM.

B5: huB1H2-V33 (antibody, human IgG1, kappa, V domains shown)
VH: B3 VH
VL: B3 VL with L73F
notes: as for B3
For B5, the EC50 is 0.439 nM in [2], about 176 nM in [12] and 0.865 nM in test [15]. Besides, the IC50 in test [3] is 7.05 nM; in [17] it was 1.45 nM. Also, the Kd in test [6] and in test [7] was 0.349 nM in each case. Besides, the koff in test [6] and in test [7] was 0.00341 s⁻¹ in each case. The kon in [6] and in [7] was 9.76e+06 M⁻¹ s⁻¹ each time. Also, the “IC50 (nM), cell killing activity” value in the test with human BCMA on U266 cells [18] was 0.14 nM. In addition, in the test with human BCMA on U266 cells [18], the “Max inhibition on cell viability (%)” value was determined as 99.9%.

As a reminder, the IC50 is the point on the concentration scale where inhibition reaches its midpoint. By EC50 is commonly meant the midpoint of the concentration-response curve. As a reminder, the Kd is the equilibrium constant for the complex coming apart. As usually defined, the koff is the rate constant with which the complex falls apart. What is called kon is a measure of how fast the partners come together.
